{"source": "paper PMC11577753", "about": "“Identification and characterization of a novel formaldehyde dehydrogenase in Bacillus subtilis” (Applied and Environmental Microbiology, 2024)", "substrate": "C=O", "assay": "purified protein", "assay_type": "biochemical, Bacillus subtilis", "details": "10 mM NAD+, 50 mM BISTRIS propane pH 9.0, 25 mM NaCl, 37 °C (Fig 6 legend; methods say 40 °C)"}
{"protein": "YycR (Bacillus subtilis subsp. subtilis str. 168) (protein, full-length, C-terminal His tag (pNIC-CH) kept, E. coli T7 Express, HisTrap purified, 44 kDa; zinc-type, metal as purified) MGGMALTGNKAVVYKGKGTVAVEDIGYPELILRDGPGVPKANVNRKCEHGVILKVITTNICGSDQHMVRGRTTAPEGLVLGHEITGEVIETGRDVEFIKKGDIVSVPFNIACGRCVMCKTQKTHVCLNVNPDRPGSAYGYVDMGGWVGGQSEYVMVPYADFQLLVFPDKEQALEKILDLTMLSDIFPTGFHGAYTAGVQTGSTVYIAGAGPVGLAAAHSAQLLGASTVIVGDLNEDRLAQARSFGCETVNVQKHDRLGEQIEQILGEPTVDAAVDCVGFEASGHGNQGEAPAAVLNSIMDVTQVGGSLGIPGLYVTEDPGAKDADAKTGSLKIRFGLGWAKAHTFVTGQTPAMTYNRNLMKAILSGRAQIAKAVNATVISLDDAPKGYSDFDKGAAKKFVIDPHGTLK", "values": [{"measurement": "Km", "result": "190 ± 50", "unit": "µM"}, {"measurement": "kcat", "result": 0.52, "unit": "s⁻¹"}]}
